Data reported in the DeepSol protein solubility set.

Assay: soluble on expression in E. coli; label from the status in PepcDB or PDB records

Row | Sequence | soluble on expression in E. coli
1 | MSLNLSFAAIDFETATGYMESACAVGIVTVTDGEITDEYYSLIQPPENEYWRANMLVHGITPGMTESLPGFHAIYPEVKKRLQGNVVVAHNEQFDRNVLKNTMRMYGLDYDELSLPERWECTCRIYRSLGYKPVNLSACCEREGIELKHHEALSDARGCAKLYLNFLEKYRPLSTEGHHHHHH | soluble
2 | MSLNMLVINGTPRKHGRTRIAASYIAALYHTDLIDLSEFVLPVFNGEAEQSELLKVQELKQRVTKADAIVLLSPEYHSGMSGALKNALDFLSSEQFKYKPVALLAVAGGGKGGINALNNMRTVMRGVYANVIPKQLVLDPVHIDVENATVAENIKESIKELVEELSMFAKAGNPGVEGGSHHHHHH | soluble
3 | MSLNNHKHARLTRLGRALLVNRVMQQNWTMRQASQAAGVSLRTGYKWLARFRSEGLDGLLDRSSRPHRSPKACAPEQVEHFAQQRRQRLPLWRIAREAGRSLATVARYMERIGLSRLASLEPPAPVRRYERASPGELLHIDTKRLGRIRGVGHRITGDRAQNRNRGIGWDAVHLAIDDFSRVSFARILDDEGGDQCAEFLHQATAYYASLGVRIDRVMTDNGSGYVSRTFRAVCVELGIRHIRTRPYTPKTNGKAERLVQTCLREWAYARPYTSSAERQAALQPFIDRYNWCRPHSALGHQPPITRIPDVNNLLRIDSEGHHHHHH | not soluble
4 | MSLNNKIKPSILPGFMELLPKEQLVFNDIVSKITGVYEQNGFLPMDTPIIEKEEVLLAKSAGETEKQVYRIDNEDRKQVLRFDLTVPFSRFAAQYMSDLTFPFKRYQLGKVYRGERNQKGRYREFYQCDVDVVGNGNLSIKNDAFIINMASKALRKIGLDSYKFQISNRKILTGVLEGLNITNMQEVMILIDKYDKITEEQFLSELNKLIGEEKAKVISKVIKISGSSDEVVENLKKVEIKNEMLEKGIEEVEEVIKYLKLFGVEDSEYAINLKIIRGLDYYTGTVFETLLTGNESYGSICSGGRYDNLAQNYTENVLPGVGMSIGITRLFFVLREIGFIENYNSSLNEKYLIVPIGDTFEYCTKILNKLLVNGKSAEIYFEEGKLKKKLTYANKLDIKYVILIGEDEVTNKELVIKDMITGEQKKLNIEEIEGHHHHHH | soluble
5 | MSLNPANLPFDSDTMLQGLRAWVECESPTWDTAAVERMLDLAAREMAIMGATIERIAGRQGFAGCVRARFPHPKQGEPGILIAGHLDTVHPVGTLSKLPFRREGNKAFGPGIFDMKGGNYLTLEAIKQLARASFTTPLPITVLFTPDEEVGTPSTRDIIEAEAARNKYVLVPEPGRPDNGVVTGRYAIARFNLEAIGKPSHAGATLSSGRSAIREMAKQILAIDAMTTEDCTFSVGIVHGGQWVNCVATTCTGEALSMAKRQADLDRGVDRMLALSGSSSDVTFKVTRGVTRPVWEPDSGTMALYEKARAVASQLGVSLPHGSAGGGSDGNFTGAMGIPTLDGLGVRGADAHTLNEHIEVDSLAERGRLMAGLLATLEEGHHHHHH | not soluble
6 | MSLNPFGNALIPDMIADASIQEINGVFYCYATTDGYGQGLKTSGPPVVWKSKDFVHWSFDGTYFPSAAKEKYWAPSKAIFANGKYYIYPTINGYMYPAVADKPEGPFKLARGKDEFYKPFTPSTLLQSKNPGGIDAEIFVDDDGQAYVFWGRRHVAKLNEDMITVDSVVQVISTPRKEYSEGPIFFKRKGIYYYLYTIGGDEKYQYAYVMSRVSPMGPFEAPEQDIISTTNYERGIFGPGHGCVFHPEGTDNYYFAYLEFGRRSTNRQTYVNQLKFNEDGTIRPVELTMDGVGALKKVKSDKKMKIDTVYASSIEVPLKIEPMKDPTCLRTEYFVPSFAVDGANGSRWMAAAEDSINPWIVADLGTVKKVRRSEIYFVRPTAGHAYVIEASMDGKVWQEFAVHQDRKMCSPHTDVLNKRFRYLRIKILKGVPGIWEWNIYEGHHHHHH | not soluble
7 | MSLNQKDPVTDDITGGWYEQDIRQLAARGIMQGEGNGKYFPERLVTRAEFATLITRALQLPSGNAKFTDLEQVHPSLRDGINRAASAGIIRGRGDNTFDPNTTITREEAVIMIDRSLKHAGIFAKQVELPFVDQNLIYAKQEVQRVYGFGIVKGNEFNQFVPKGPSQRAHAAAFINRMLSVIEAEGHHHHHH | soluble
8 | MSLNQTDLSASSTSSTSRPLVAVTGADGFIGSHLTEDLVRAGYRVRAMAIYNSQGSYGWLDTVPGEVMEHVEVQLGDVRDAGSVRALMRDVQTVYHLAALIAIPYSYVAPRSYVETNITGTLNVLEAARDLGTGRVIHTSTSEVYGTARSVPIHESHPLQGQSPYSATKIGADKLAESYFLSFGLPVVTLRPFNTYGPRQSARAVIPTIISQLAAGRTEIKLGDLRPTRDFNYVADTARAFRAVGEAGPEVLGRTLNAGSGREISVGDTVKLIAQVMGKDVEVKQEDERLRPEGSEVMRLLADHRELQTLTGWQPQVTLEEGLKRTAEWFTDAGNLARYRVDQYTEGHHHHHH | soluble
9 | MSLNQTFDKENLESKNTQNLQKSKNPTSQLSKTILKEEFNFLPNDVEINWKGRVLVIGDIHGDLKSLITSLFLSGVINSNLDWIAKNTLLIQLGDVVDRGSHALQIYKLFNKLKSQAPSLGSKFVGLLGNHEVMNLCGQLHYVTDEDFQTYGGRDNRTFEWSKEGFVGKYLRTMKLAIRVNDSLYVHAGLLPKYAKLGLDKLDKLSNDLLEGDFCDFYSSLFFVEDGPLWTRDISLGEEEKACKLVDETLQILGLSRMVVGHTIQHDNRINIKCDNKLILADTGFSEAIYGKPCMLEILYHNDNPDPSNYKSFHPYSEGHHHHHH | not soluble
10 | MSLNRFRKWLYKPKRSDPQLLARFYYADEELNQVAAELDSLDGRKDPQRCTLLVSQFRSCQDNVLNIINQIMDECIPQDRAPRDFCVKFPEEIRHDNLAGQLWFGAECLAAGSIIMNRELESMAMRPLAKELTRSLEDVRGALRDQALRDLNTYTEKMREALRHFDVLFAEFELSYVSAMVPVKSPREYYVQQEVIVLFCETVERALDFGYLTQDMIDDYEPALMFSIPRLAIVCGLVVYADGPLNLDRKVEDMSELFRPFHTLLRKIRDLLQTLTEEELHTLERNLCISQDVEFPIRADEGHHHHHH | not soluble
11 | MSLNSKKETINIGCSLPLTGEGANYGRSVKEGVDLAIEEINQSEMFDLPLKVIYEDDKMDPREGVNAINKLITADNVPIIIGPFGSSITLAVAPIANKNKVVLLGASATADNIKDAGDYIFRITPPNSKQGNDVASFCFNSLNSKKAAIIYQTNDYGTTLKTAFESEYLKLGGEVLIVEGVDLGNKDFKTQILKIKSKQVDVVFFPLHVAESGNFLKQSKELGLNVKFISCDGAMVDDLLKLAGNAAEGTYYTSLALAYGMNDSLINSFNTNFKKKYNKEPDVYAAYYYEVTYILAHALKKANGNIGQIKEILYSINGENAYNGITGLTSFDTYGEVDKSFSIYVVSNNKFSLFKEGHHHHHH | soluble
12 | MSLNSSFFKMMEKRSYNRFNQEQKAAITYDMKKHLRIIAGAGSGKTQTICAKAVYLMTQKQVDEERILMITFTRNAANELKKRVDNFSQRKTAVHIGTFHSIFFRIYNEICRKFPEVAMQGIQGDFSKDTAQKVNAVLQQLIRKYNLYIFDQYGEKTIASRLDYWQNMNLSVEEMVQLVKEKYDSIDKNARQPISERLYGLLTELQEQKRSQQLLEFNDVLQNLKSALENEEIQHYIGQKYDYLFIDEFQDTNPLQWEIVKRMTKENRIKLIVVGDDDQSIYGFRGSEPAYIKNFEKEYPTKTLFLLTNYRSRAAIVQGANRLISYNKNDRIPKAMIPAQKEAGVMEAYLFSDTKAESQWLIKQIQTFIQKNGKYKESIILYRSASQTQQLVQSLLKTNIPFVLEADSPYEGIFGIKSFQHFYQKIVHWQTALNLQKKNQAYQQLLRQLMADCYLKKSECDQYFSPKYQNIAVADYILSISPNLKSKSAEIREFEEALRKTDQHQEIYSLVQSYLHLPRIAKEIDQSDQEWIREEVKQHATFRRLQALSQETQATAKELKTRLIAYRQGKLDALCIQSIHKSKGLSYRNVFLIGCNEGSLPYNGATEKKVIDFNEIKAEPVTTIEEERRLFYVAMTRARNRLYLCVPQMKNSRKLKVSRFIKETGSRVKKGEGHHHHHH | soluble
13 | MSLNSTQMNKQVIDKYTQRHELYLEQLLNEIIIPAPQIRSALHYALFSGGKRIRPILVYLAGDLIDVDQGVLDIIAAALELTHCYSLIHDDLPAMDNDDLRRGKPSCHKAFDEATAILVGDGMQALAIEVLLMRLSPLLPAAQVVAITQVLVNASGISGMVSGQSLDLSELAKSSVTEEQLREIHLLKTGKLILACFEMVLAAQHEVSEQIKSALRTYGKHIGLVFQMQDDYLDLYAPTQILGKGRSSDQANQKTTFATLFNKQQLEEEIAVHYQIAMDSLRLFGSKAAALIELTKQLQNRSNLSEGHHHHHH | soluble
14 | MSLNTFWKSFPDVERSLTETCELIEQTLHTRNEDIEEALVTLARSGGKLLRPAFFFLFAQLGDEEKQEKQQLLKIAASLEILHMATLIHDDIIDDSPLRRGAVTIQSQYGKDVAVYTGDLLFTEFFTLIADAMNGSEFMKINAQGMKRLLLGELDQMSHRFDRRMSIPAYLRSVNGKTAELFSLSCLEGAYFGHSSKEVQRLAKRIGRHIGIAFQVYDDILDYTADTETLKKPALEDLSQGVYTLPLLFAYQAAPDVFSPYLDKGRAITLEEAAEVAALVNDYHGVTEAQAFAKKVTNKAITDIQQLPDGTAKETLLSLTELLLHRSFEGHHHHHH | soluble
15 | MSLNTLNQDIAFKIFTMFYKVCYGKKKHTYTSFFEKFQICTYNDILLLCDEVAKLFKMENSLENVTLPCKVFGDVHGNLFDLLDFFNLYNWPMHNNKVFLGNLINRGNYSLEVICLLFSLKILFPKHIYLLRGNHEDRLFNYIYGFYKDIEIKMKTNMEYMGIINYQEQVISAHSYELFNRINDVFEFFPLCVLLDKNILCIHGGIGDSVMTISDYQHIRKPILIPQNVDRYSNNKSEHVKKIIIDTLWSDPINYNDELDLQLLKNSSTYDIIPSRRGNITFKFGKHRLNDFLKNNQLKLIIRGHECVQEGYKYSYKRKLLTLFSAKNYCNKYNNNASNAFIVRKNKNIIIFNQILKYQHNCEGHHHHHH | not soluble
16 | MSLNTPVEFNLPDSIELEREEVEEDLLTSGDEILLSYSSYIPPKLHSMTSHLQLRVDFFVNLLQFTRANFIYKVSPQVKLKLLESYEILNCSLSLSSYLSSDTDLTTQWHRVLLSEEVTEEELMLHQLKRFPELFGKFLAEIDEPLRSSSDIKFKVAAADLVNCVIYHSCLERGESEYRCNQLNLDLTEVGDDLPWFINFSIPDSLNKILLHLFYSFEDGNVPDEYHDKLLEIIKSLYYMCKQSDVWYAVKGSNAYEAGYQGFNLNSTLSNHLTWIQILLKIGRSVDALNIADFYHDLSGLVETLSSFDYEKAHPLYEEYFTKYGYQFSKTLFTTVIEQGKINDLFSRFPSHHDDLVRFFDEYPQYGHVSWIGNIFDQQYNAAAEVLVSVSSPDAAKKLDLNQLQVRLSIAKLSALAEEPILNMDLLNTIQSGLDLIDSQKKAAELAGEHTSLSKRYLETESHYQSILEKLKTNIVLSEYELVGIYTVLDDVTAFAKALHFLSLIKTIPEDSRQFLVSMIWRKCILFNDWNHTSDDLSTALYATLLAFFKEEYYRAGIPLPHVPKLTAPISKDTLSEQLFAGVECGNLLLDGAEADTSALSAVQTDMESRIRFLIGSAHSEAGASCVVNYETNTVDEGHHHHHH | soluble
17 | MSLNVSHFFPETFVSLVKDMLTKTDGSTTKAIETLIGGKAEIEVFQQNNIDYDKLSPEEARLFQRDDDILFRTSSLKTGDDYLSYNYVYVKTNLLPPAIKQDLQEERLPIGKIIAELESRREIFSTGDCLGKHFTQLVPVSADRTYAFKKYQIISGRQCMFYVCELFDLEKICKLTAGEGHHHHHH | not soluble
18 | MSLPDEQGRRTVTLETAEEALLKRAVVYDHDGDEHYHVASALIKSIRGSDPDAALYWLARMLYAGEDPRFIARRLVISAAEDIGLADPQALVIAQAAADAVSFIGMPEGRIPLAEAVVYLACAPKSNSAYLAIDRALAVVEREKTPPVPNHLKDTGYGSDQRLGYGKGYQYPHDFPGAWVEQRYLPEGVDGPFWEPKGYGREAELARLLRERRGREGHHHHHH | soluble
